Here are results for 13 sequences from the supplement of paper PMC10724198.

What all share (experiment): protein stability index of tFT-peptide fusion (C-terminal peptide) (PSI (0-1 scale)); higher = more stable (slower turnover)
The subject of series [1] is Saccharomyces cerevisiae. Conditions: temperature: 30 C. How it is done:
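MPS profiling in S. cerevisiae of the yeast C-terminome library: the last 12 aa of each annotated ORF are fused to the C-terminus of a sfGFP-mCherry timer, after a GGGS linker. Cells are FACS-sorted into 8 mCherry/sfGFP bins and deep-sequenced. PSI runs from 0 (unstable) to 1 (stable); wild type and das1Δ backgrounds, two technical replicates each.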

Series [2] concerns Saccharomyces cerevisiae. As for the experimental part:
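MPS profiling in S. cerevisiae of the tFT-X12 degron library: putative degron peptides plus stable controls, 12 aa, fused to the C-terminus of a sfGFP-mCherry timer. Cells are FACS-sorted into 8 mCherry/sfGFP bins and deep-sequenced. PSI runs from 0 (unstable) to 1 (stable). Backgrounds are wild type, das1Δ and doa10Δ at 30 °C, and wild type, das1Δ, cdc34-1 and cdc53-1 at 37 °C; 2-3 technical replicates each.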

Series [3] has as its system Saccharomyces cerevisiae. Conditions: genetic background: wild type; temperature: 30 C.
Where [4] appears, read: genetic background: das1 deletion.
Setting [5] is: genetic background: cdc34-1, temperature: 37 C.
[6] abbreviates: genetic background: cdc53-1, temperature: 37 C.
The mark [7] stands for this setting: genetic background: das1 deletion, temperature: 30 C.
The mark [8] stands for this setting: genetic background: das1 deletion, temperature: 37 C.
Setting [9] is: genetic background: doa10 deletion, temperature: 30 C.
[10] abbreviates: genetic background: wild type, temperature: 30 C.
Setting [11] is: genetic background: wild type, temperature: 37 C.

± gives the standard deviation of the averaged measurements.

Regarding AAANILFSDHAD [RAD23 C-terminal 12 aa], the protein stability index is 0.739 ± 0.032 in series [1] (setting [4]) and 0.733 ± 0.032 in series [1] (genetic background: wild type).

On to AAGVGSVHGINR [COY1 C-terminal 12 aa], for which the protein stability index is 0.7 ± 0.03 in series [1] (setting [4]) and 0.6645 ± 0.0066 in series [1] (genetic background: wild type).

For the sequence AAISFKEAPRSD [ANB1 C-terminal 12 aa], the protein stability index was 0.723 ± 0.037 in series [1] (setting [4]) and 0.694 ± 0.036 in series [1] (genetic background: wild type).

With AARPCLEGSVAP [YOR050C C-terminal 12 aa], the protein stability index in series [1] (setting [4]) was found to be 0.686 ± 0.01; in series [1] (genetic background: wild type), 0.6795 ± 0.0067.

Turning to ADETVDFYVYDE [SWD2 C-terminal 12 aa], the protein stability index in series [1] (setting [4]) is 0.744 ± 0.027; in series [1] (genetic background: wild type), 0.698 ± 0.06.

Turning to AEFLGSFDELVL [EEB1 C-terminal 12 aa], the figures for the protein stability index in series [1] (setting [4]) and in series [1] (genetic background: wild type) were 0.72333 ± 5e-06 and 0.719 ± 0.018, respectively.

On to VRFLLSLCCALL, for which the protein stability index in series [2] (setting [5]) amounted to 0.588 ± 0.03; in series [2] (setting [6]), 0.671 ± 0.018; in series [2] (setting [7]) it was 0.548 ± 0.033; in series [2] (setting [8]), 0.624 ± 0.042; in series [2] (setting [9]), 0.5436 ± 0.0034; in series [2] (setting [10]) it was 0.518 ± 0.021. Moreover, the protein stability index in series [2] (setting [11]) was 0.596 ± 0.032; in series [3], 0.4914 ± 0.0025.

Turning to VRLYLRSCVVES, the protein stability index in series [2] (setting [5]) turned out to be 0.347 ± 0.061; in series [2] (setting [6]), 0.368 ± 0.0011; in series [2] (setting [7]), 0.228 ± 0.029; in series [2] (setting [8]), 0.437 ± 0.0094; in series [2] (setting [9]) it was 0.181 ± 0.0071; in series [2] (setting [10]), 0.217 ± 0.026. Further, the protein stability index turned out to be 0.4148 ± 0.0031 in series [2] (setting [11]) and 0.32 ± 0.021 in series [3].

As for VRMVIFSSVYLT, the protein stability index turned out to be 0.462 ± 0.002 in series [2] (setting [5]); 0.509 ± 0.03 in series [2] (setting [6]); 0.362 ± 0.033 in series [2] (setting [7]); 0.533 ± 0.0036 in series [2] (setting [8]); 0.256 ± 0.008 in series [2] (setting [9]); 0.26 ± 0.027 in series [2] (setting [10]). For the same sequence, the protein stability index in series [2] (setting [11]) is 0.448 ± 0.02; in series [3], 0.309 ± 0.0098.

As for VRWLVFFLFLFG, the protein stability index in series [2] (setting [5]) amounted to 0.501 ± 0.011; in series [2] (setting [6]), 0.481 ± 0.013; in series [2] (setting [7]), 0.406 ± 0.023; in series [2] (setting [8]), 0.555 ± 0.0072; in series [2] (setting [9]), 0.322 ± 0.0038; in series [2] (setting [10]) it was 0.327 ± 0.022. Moreover, the protein stability index in series [2] (setting [11]) came to 0.497 ± 0.016; in series [3], 0.466 ± 0.074.

With VSCLDLCFVISR, the protein stability index came to 0.647 ± 0.041 in series [2] (setting [5]); 0.681 ± 0.022 in series [2] (setting [6]); 0.503 ± 0.034 in series [2] (setting [7]); 0.66874 ± 0.00016 in series [2] (setting [8]); 0.528 ± 0.029 in series [2] (setting [9]); 0.514 ± 0.025 in series [2] (setting [10]). Besides, the protein stability index in series [2] (setting [11]) was 0.626 ± 0.018; in series [3], 0.437 ± 0.013.

For VSCYYVFLIPFW, the protein stability index in series [2] (setting [5]) turned out to be 0.463 ± 0.011; in series [2] (setting [6]) it was 0.6 ± 0.036; in series [2] (setting [7]) it was 0.414 ± 0.038; in series [2] (setting [8]), 0.57839 ± 0.00033; in series [2] (setting [9]), 0.408 ± 0.018; in series [2] (setting [10]), 0.409 ± 0.017. The protein stability index came out at 0.56 ± 0.0097 in series [2] (setting [11]) and 0.484 ± 0.02 in series [3].

For VSFLLYNFLSVF, the protein stability index in series [2] (setting [5]) came out at 0.286 ± 0.0083; in series [2] (setting [6]), 0.418 ± 0.0077; in series [2] (setting [7]) it was 0.346 ± 0.028; in series [2] (setting [8]) it was 0.4643 ± 0.0021; in series [2] (setting [9]), 0.053 ± 0.019; in series [2] (setting [10]) it was 0.0707 ± 0.012. Further, the protein stability index in series [2] (setting [11]) was found to be 0.0652 ± 0.015; in series [3], 0.101 ± 0.0017.
